One assay has as its target SCARB2-Fc (UniProt Q14108). Put plainly: pull-down with SCARB2-Fc and anti-human Fc IgG conjugated beads, quantified by qRT-PCR. As to conditions: 4°C; parent: est. 100; read off a plot. On the technique in general: In qPCR the cycle at which signal appears reflects the starting amount.
The target in assay [1] is EV71 mature virion (F-particle), inactivated. As to the kind of experiment: ELISA. As to conditions: read off a plot. A general note: ELISA stands for enzyme-linked immunosorbent assay.
The target in assay [2] is EV71 procapsid (E-particle), inactivated. Put plainly: ELISA. As to conditions: read off a plot.
Assay [3] addresses EV71 virus-like particle (VLP). As to the kind of experiment: ELISA. As to conditions: read off a plot.
For assay [4], the target named is SP70 peptide (amino acid residues 208 to 222 of EV71 VP1) (UniProt Q66478). Put plainly: ELISA. As to conditions: read off a plot.
The target in assay [5] is EV71/G082 wild-type virus (enterovirus 71 strain EV71/G082).
The target is the same in assay [6]. This is another data set of the same source.
Assay [7] shares this target. The source holds these as a separate data set.
The target of assay [8] is T1, EV71 mature virion (F-particle), inactivated (Enterovirus A71, strain of the …).
T1 construct: VP1 of enterovirus 71, cut product of the polyprotein; PDB 3VBS is the crystal structure fitted into the map and may be of another strain; numbers count on: the mature VP1 chain; VP2 of enterovirus 71, cut product of VP0 of the polyprotein; numbers count on: the mature VP2 chain; VP3 of enterovirus 71, cut product of the polyprotein; numbers count on: the mature VP3 chain; VP4 of enterovirus 71, …
T1 chain 1: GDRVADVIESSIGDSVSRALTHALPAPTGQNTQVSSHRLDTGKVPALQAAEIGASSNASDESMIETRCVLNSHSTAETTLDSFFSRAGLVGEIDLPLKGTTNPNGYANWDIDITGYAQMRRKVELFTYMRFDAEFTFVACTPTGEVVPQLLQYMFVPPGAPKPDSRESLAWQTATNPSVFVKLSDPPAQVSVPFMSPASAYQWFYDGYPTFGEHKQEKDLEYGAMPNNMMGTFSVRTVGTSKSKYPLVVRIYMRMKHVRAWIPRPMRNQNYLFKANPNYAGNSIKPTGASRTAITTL
T1 chain 2: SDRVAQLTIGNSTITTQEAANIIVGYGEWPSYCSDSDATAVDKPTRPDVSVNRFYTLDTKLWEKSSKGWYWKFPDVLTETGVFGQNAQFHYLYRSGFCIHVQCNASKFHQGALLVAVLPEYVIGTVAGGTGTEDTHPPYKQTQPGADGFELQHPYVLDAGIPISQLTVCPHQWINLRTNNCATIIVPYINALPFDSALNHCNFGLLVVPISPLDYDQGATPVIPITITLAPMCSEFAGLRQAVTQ
T1 chain 3: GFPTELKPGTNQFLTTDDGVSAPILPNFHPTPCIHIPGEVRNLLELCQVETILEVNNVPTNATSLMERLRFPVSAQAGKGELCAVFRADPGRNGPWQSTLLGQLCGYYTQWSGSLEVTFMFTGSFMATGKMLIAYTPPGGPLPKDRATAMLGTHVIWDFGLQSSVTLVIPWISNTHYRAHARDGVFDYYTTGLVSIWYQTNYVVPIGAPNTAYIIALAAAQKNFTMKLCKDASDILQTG
Put plainly: BLI; Octet RED 96; biotin-labelled inactivated F-particles on streptavidin tips; D5 IgG or Fab at 40 to 0.0128 μg/ml; kinetics buffer (PBS, 0.1% BSA, 0.02% Tween-20), room temperature; called avidities. As to conditions: both partners purified.

The target of assay [9] is T2, SP70 peptide (amino acid residues 208 to 222 of EV71 VP1) (Enterovirus 71; stretch identical among …).
T2 construct: VP1 of enterovirus 71, residues 208 to 222, corresponding to the GH-loop; Q66478 is strain BrCr; numbers count on: the mature VP1 chain
T2 chain: YPTFGEHKQEKDLEY
Put plainly: ELISA; plates coated with 20 ng/well E-particle, F-particle or VLP or 100 ng/well SP70 peptide; serially diluted scFv 2 h at 37°C; detected with HRP anti-His antibody. As to conditions: both partners purified.

[10] abbreviates: 6.25 ng/well, parent: est. 0.52.
Where [11] appears, read: 6.25 ng/well, parent: est. 0.83.

SCARB2-Fc, sequence (Q14108 whole entry): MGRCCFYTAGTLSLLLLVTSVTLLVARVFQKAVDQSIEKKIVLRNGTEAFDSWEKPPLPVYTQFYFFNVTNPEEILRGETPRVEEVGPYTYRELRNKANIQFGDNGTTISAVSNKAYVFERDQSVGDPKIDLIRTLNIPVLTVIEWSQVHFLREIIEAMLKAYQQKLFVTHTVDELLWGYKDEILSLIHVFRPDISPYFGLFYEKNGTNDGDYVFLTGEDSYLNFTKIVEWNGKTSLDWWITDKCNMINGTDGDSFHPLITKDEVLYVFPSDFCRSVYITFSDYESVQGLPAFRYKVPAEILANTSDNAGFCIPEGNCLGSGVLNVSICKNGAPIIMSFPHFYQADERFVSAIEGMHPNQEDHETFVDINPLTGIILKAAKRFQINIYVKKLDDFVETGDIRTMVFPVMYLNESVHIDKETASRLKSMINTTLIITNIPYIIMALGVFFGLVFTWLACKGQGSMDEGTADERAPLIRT

Turning to EV71/G082 wild-type virus K218E, in the assay with SCARB2-Fc, the percent of parent amounted to 65%.
“D5 wild-type single-chain variable fragment (scFv-WT) D104A”: the response amounted to 0.09 OD450nm in assay [1] (400 ng/well, parent: est. 1.0); 0.08 OD450nm in assay [2] (400 ng/well, parent: est. 2.1); 0.05 OD450nm in [3] (400 ng/well, parent: est. 1.8); 0.05 OD450nm in [4] (400 ng/well, parent: est. 3.1).
Regarding “D5 wild-type single-chain variable fragment (scFv-WT) F103A”, the response turned out to be 0.18 OD450nm in [1] (setting [10]); 0.42 OD450nm in assay [1] (25 ng/well, parent: est. 0.76); 0.7 OD450nm in assay [1] (100 ng/well, parent: est. 0.88); 0.86 OD450nm in [1] (400 ng/well, parent: est. 1.0); 0.82 OD450nm in [2] (6.25 ng/well, parent: est. 1.8); 1.6 OD450nm in [2] (25 ng/well, parent: est. 2.1). The response was determined as 2.2 OD450nm in [2] (100 ng/well, parent: est. 2.2); 2.2 OD450nm in assay [2] (400 ng/well, parent: est. 2.1); 0.48 OD450nm in assay [3] (6.25 ng/well, parent: est. 1.3); 1.1 OD450nm in [3] (25 ng/well, parent: est. 1.6); 1.6 OD450nm in assay [3] (100 ng/well, parent: est. 1.8); 1.7 OD450nm in assay [3] (400 ng/well, parent: est. 1.8). In addition, the response turned out to be 0.3 OD450nm in assay [4] (setting [11]); 0.95 OD450nm in assay [4] (25 ng/well, parent: est. 2.0); 2.2 OD450nm in assay [4] (100 ng/well, parent: est. 3.0); 2.7 OD450nm in assay [4] (400 ng/well, parent: est. 3.1).
As for “D5 wild-type single-chain variable fragment (scFv-WT) W102A”, the response in assay [1] (400 ng/well, parent: est. 1.0) came out at 0.1 OD450nm; in assay [2] (400 ng/well, parent: est. 2.1) it was 0.3 OD450nm; in assay [3] (400 ng/well, parent: est. 1.8) it was 0.19 OD450nm; in assay [4] (400 ng/well, parent: est. 3.1) it was 0.05 OD450nm.
Consider “D5 wild-type single-chain variable fragment (scFv-WT) F105A”, for which the response came to 0.12 OD450nm in assay [1] (400 ng/well, parent: est. 1.0); 0.43 OD450nm in [2] (400 ng/well, parent: est. 2.1); 0.2 OD450nm in [3] (400 ng/well, parent: est. 1.8); 0.05 OD450nm in assay [4] (400 ng/well, parent: est. 3.1).
Take “D5 wild-type single-chain variable fragment (scFv-WT) N100A”: the response in assay [1] (setting [10]) turned out to be 0.43 OD450nm; in assay [1] (25 ng/well, parent: est. 0.76) it was 0.67 OD450nm; in [1] (100 ng/well, parent: est. 0.88), 0.9 OD450nm; in assay [1] (400 ng/well, parent: est. 1.0), 1 OD450nm; in assay [2] (6.25 ng/well, parent: est. 1.8) it was 1.7 OD450nm; in assay [2] (25 ng/well, parent: est. 2.1), 2.1 OD450nm. The response stood at 2.4 OD450nm in assay [2] (100 ng/well, parent: est. 2.2); 2.2 OD450nm in [2] (400 ng/well, parent: est. 2.1); 1.1 OD450nm in assay [3] (6.25 ng/well, parent: est. 1.3); 1.4 OD450nm in [3] (25 ng/well, parent: est. 1.6); 1.8 OD450nm in assay [3] (100 ng/well, parent: est. 1.8); 1.8 OD450nm in assay [3] (400 ng/well, parent: est. 1.8). In addition, the response in [4] (setting [11]) is 0.43 OD450nm; in [4] (25 ng/well, parent: est. 2.0), 1.3 OD450nm; in assay [4] (100 ng/well, parent: est. 3.0) it was 2.7 OD450nm; in assay [4] (400 ng/well, parent: est. 3.1), 3 OD450nm.
Turning to “D5 wild-type single-chain variable fragment (scFv-WT) Y101A”, the response in assay [1] (400 ng/well, parent: est. 1.0) came to 0.15 OD450nm; in assay [2] (400 ng/well, parent: est. 2.1), 0.3 OD450nm; in assay [4] (400 ng/well, parent: est. 3.1) it was 0.05 OD450nm.
As to EV71/G082 wild-type virus K218T, in the assay with SCARB2-Fc, the percent of parent was 84%.

B1: D5 intact IgG (antibody, V domains shown)
VH: EVQLQQSGAELVKPGASVKLSCTASGFNIKDTYIHWVKQRPEQGLEWIGKIDPANGNTKYDPKFQDKATITADTSSNTAYLQLSSLTSEDTAVYYCANSNYWFDFDYWGQGTTLTVSS
VL: DVLMTQTPLSLPVSLGDQASISCRSSQSIVHSNGNTYLEWYLQKPGQSPKLLIYKVSNRFSGVPDRFSGSGSGTDFTLKISRVEADDVGVYYCYQGSHVPYTFGGGTKLEIK
notes: variable region of the D5 heavy chain (VH, 1-118 aa); constant region of the mouse IgG heavy chain; variable region of the D5 light chain (VL, 1-113 aa); constant region of the mouse light chain; also called MAb D5; mAb D5; source: D5 hybridoma (mouse)
In [5], B1 returned an IC50 of neutralization (50% inhibition of cell death, MTT assay), EV71/G082 of 0.183 µg/mL and a Neutralization concentration (lowest antibody concentration that fully prevents CPE), EV71/G082 of 0.313 µg/mL. In assay [6], this molecule showed an IC50 of neutralization of EV71 G082 (100 TCID50) on RD cells, standard neutralization assay, MTT of 2.23 nM. This molecule also returned an IC50 of neutralization of EV71 G082 on RD cells, post-attachment neutralization assay in [7] of 10.1 nM. In addition, the equilibrium dissociation constant (Kd) (as a rule, a measure of binding affinity in units of concentration) in assay [8] turned out to be 6 nM.

B2: D5 wild-type single-chain variable fragment (scFv-WT) (scFv, V domains shown)
VH: EVQLQQSGAELVKPGASVKLSCTASGFNIKDTYIHWVKQRPEQGLEWIGKIDPANGNTKYDPKFQDKATITADTSSNTAYLQLSSLTSEDTAVYYCANSNYWFDFDYWGQGTTLTVSS
VL: DVLMTQTPLSLPVSLGDQASISCRSSQSIVHSNGNTYLEWYLQKPGQSPKLLIYKVSNRFSGVPDRFSGSGSGTDFTLKISRVEADDVGVYYCYQGSHVPYTFGGGTKLEIK
notes: variable region of the D5 heavy chain (VH, 1-118 aa); 11-amino acid residue (GGGGS)2G linker; variable region of the D5 light chain (VL, 1-113 aa); Cloned in pET28b; also called wild-type scFv; VH-(GGGGS)2G-VL; source: E. coli BL21, purified from the soluble fraction (Ni-NTA)
In the case of B2, the binding result in assay [9] is “binds”.

B3: D5 scFv-F103A (scFv, V domains shown)
VH: EVQLQQSGAELVKPGASVKLSCTASGFNIKDTYIHWVKQRPEQGLEWIGKIDPANGNTKYDPKFQDKATITADTSSNTAYLQLSSLTSEDTAVYYCANSNYWADFDYWGQGTTLTVSS
VL: DVLMTQTPLSLPVSLGDQASISCRSSQSIVHSNGNTYLEWYLQKPGQSPKLLIYKVSNRFSGVPDRFSGSGSGTDFTLKISRVEADDVGVYYCYQGSHVPYTFGGGTKLEIK
notes: variable region of the D5 heavy chain (VH, 1-118 aa), as the VH of m3 with the stated change; 11-amino acid residue (GGGGS)2G linker; variable region of the D5 light chain (VL, 1-113 aa), as the VL of m3; Point mutant of m3 in the heavy chain CDR3; source: E. coli BL21, purified from the soluble fraction (Ni-NTA)
For B3, in assay [9], the binding result is listed as “binds”.

B4: D5 Fab (Fab, V domains shown)
VH: EVQLQQSGAELVKPGASVKLSCTASGFNIKDTYIHWVKQRPEQGLEWIGKIDPANGNTKYDPKFQDKATITADTSSNTAYLQLSSLTSEDTAVYYCANSNYWFDFDYWGQGTTLTVSS
VL: DVLMTQTPLSLPVSLGDQASISCRSSQSIVHSNGNTYLEWYLQKPGQSPKLLIYKVSNRFSGVPDRFSGSGSGTDFTLKISRVEADDVGVYYCYQGSHVPYTFGGGTKLEIK
notes: variable region of the D5 heavy chain (VH, 1-118 aa), as the heavy chain of m1; constant part of the Fab heavy chain left by papain; variable region of the D5 light chain (VL, 1-113 aa), as the light chain of m1; constant region of the mouse light chain; also called Fab of D5; D5 Fab fragment; source: papain digestion of D5 IgG, purified (Hitrap Protein G, Sephacryl S-100)
B4: in assay [6], the IC50 of neutralization of EV71 G082 (100 TCID50) on RD cells, standard neutralization assay, MTT was found to be 37.4 nM. In addition, in assay [7], the IC50 of neutralization of EV71 G082 on RD cells, post-attachment neutralization assay amounted to 191 nM. Moreover, binding in [8] was put at a Kd of 15 nM.

B5: D5 scFv-N100A (scFv, V domains shown)
VH: EVQLQQSGAELVKPGASVKLSCTASGFNIKDTYIHWVKQRPEQGLEWIGKIDPANGNTKYDPKFQDKATITADTSSNTAYLQLSSLTSEDTAVYYCANSAYWFDFDYWGQGTTLTVSS
VL: DVLMTQTPLSLPVSLGDQASISCRSSQSIVHSNGNTYLEWYLQKPGQSPKLLIYKVSNRFSGVPDRFSGSGSGTDFTLKISRVEADDVGVYYCYQGSHVPYTFGGGTKLEIK
notes: as for B3
In the case of B5, the binding result in assay [9] is “binds”.

The values are drawn from PMC4777393, “Structural Basis for Recognition of Human Enterovirus 71 by a Bivalent Broadly Neutralizing Monoclonal Antibody” (PLoS Pathogens, 2016).
